Experimental findings from patent publication US20030186868A1 (Regeneron, published 2003) are described below.

The target in experiment [1] is T1, VEGFR-2/NP-1 co-receptor complex (cells co-expressing hVEGFR-2 and hNP-1) (human, UniProt P35968 20-1356; O14786 22-923).
T1 construct: whole, on cells; All numbers printed for cells co-expressing both receptors are put on this molecule; also called R2 + NP1 Cells; VEGFR-2/NP-1 complex
Briefly: 125I-VEGF165 affinity labeling of HUVEC, VEGFR-2 immunoprecipitation, 100 µM peptide (FIG. 10A). On the procedure:
(§1) The crosslinker is removed with a single, ice cold, large volume wash (15 ml DPBS, Gibco). The cells are then lysed using RIP buffer (20 mM Tris HCl, pH 7.4; 100 mM NaCl; 1 mM EDTA; 10 mM NaI; 0.5% IGEPAL CA-630; 0.5% Na-deoxycholate; 1% BSA; all from Sigma). The lysate is then transferred to 1.5 ml conical tubes and centrifuged at 13,000×g to pellet the cellular debris. […] The precipitation tube is then incubated overnight at 4° C. on a nurator. The following morning the beads are washed three times in TNEN buffer (20 mM Tris-HCl pH 7.4; 100 mM NaCl; and 0.5% IGEPAL CA-630, all from Sigma), and heated for two minutes at 100° C. in 25 μl of 1×sample loading dye (5′-3′). The samples are then centrifuged to separate the beads from the sample buffer, and 20 μl of the sample buffer is loaded onto 6% SDS-PAGE gels (Novex). The gels are run at 35 mA for approximately 70 minutes, and then equilibrated in a drying buffer (10% acetic acid; 10% methanol, 80% H₂O) for 15 minutes and dried on a gel drier. The dried gels are then exposed to a phosphor screen overnight and developed using a Storm system (Molecular Dynamics).
(§2) Further amino terminal deletions were conducted.

The target of experiment [2] is T2, human vascular endothelial growth factor receptor-2 (hVEGFR-2) (human, UniProt P35968 20-1356).
T2 construct: whole, on cells; also called flk-1; FLK-1
T2 sequence (P35968 20-1356): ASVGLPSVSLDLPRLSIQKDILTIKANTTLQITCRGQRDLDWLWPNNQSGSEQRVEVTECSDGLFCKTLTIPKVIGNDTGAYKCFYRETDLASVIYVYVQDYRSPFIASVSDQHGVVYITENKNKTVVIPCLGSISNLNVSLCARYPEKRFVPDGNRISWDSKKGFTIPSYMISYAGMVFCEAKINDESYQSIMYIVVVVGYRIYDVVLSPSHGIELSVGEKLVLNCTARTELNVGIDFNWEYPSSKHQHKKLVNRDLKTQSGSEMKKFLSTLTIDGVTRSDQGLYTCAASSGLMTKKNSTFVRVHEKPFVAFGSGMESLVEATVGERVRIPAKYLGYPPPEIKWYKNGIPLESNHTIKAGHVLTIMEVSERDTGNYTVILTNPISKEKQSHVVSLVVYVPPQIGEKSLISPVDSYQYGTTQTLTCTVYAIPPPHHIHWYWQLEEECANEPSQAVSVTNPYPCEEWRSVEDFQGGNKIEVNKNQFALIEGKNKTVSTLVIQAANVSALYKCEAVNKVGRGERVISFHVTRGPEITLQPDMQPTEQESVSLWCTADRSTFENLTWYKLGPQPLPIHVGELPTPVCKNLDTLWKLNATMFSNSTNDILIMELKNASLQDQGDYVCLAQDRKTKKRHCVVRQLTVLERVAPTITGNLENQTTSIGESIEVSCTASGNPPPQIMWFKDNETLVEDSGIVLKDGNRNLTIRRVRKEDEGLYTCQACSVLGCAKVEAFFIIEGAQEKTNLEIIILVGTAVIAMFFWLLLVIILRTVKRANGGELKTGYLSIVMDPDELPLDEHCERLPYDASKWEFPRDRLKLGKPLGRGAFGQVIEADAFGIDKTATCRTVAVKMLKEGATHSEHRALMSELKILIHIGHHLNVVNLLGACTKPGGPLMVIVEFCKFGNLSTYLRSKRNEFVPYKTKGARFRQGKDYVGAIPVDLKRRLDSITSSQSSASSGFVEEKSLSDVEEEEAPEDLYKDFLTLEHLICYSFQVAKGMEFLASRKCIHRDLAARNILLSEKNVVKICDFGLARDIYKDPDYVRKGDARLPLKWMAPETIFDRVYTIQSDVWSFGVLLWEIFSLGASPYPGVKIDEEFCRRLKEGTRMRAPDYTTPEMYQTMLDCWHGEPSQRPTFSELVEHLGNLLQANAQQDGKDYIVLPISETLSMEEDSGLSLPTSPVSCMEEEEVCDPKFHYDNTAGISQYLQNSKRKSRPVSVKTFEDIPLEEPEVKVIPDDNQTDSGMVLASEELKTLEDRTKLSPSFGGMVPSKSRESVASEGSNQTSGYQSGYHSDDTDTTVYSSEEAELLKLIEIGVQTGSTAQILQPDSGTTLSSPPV
Briefly: 125I-VEGF165 (287 pM) competition by cold ligand, COS-1 cells overexpressing VEGFR-2. The method, then:
The cells were then rinsed three times with ice cold binding buffer to remove unbound ligand, lysed, and transferred to 12×75 mm test tubes for counting on a gamma counter. The IC₅₀ values were calculated by fitting the data to a four parameter logistic equation (Prism software).

Experiment [3] has as its target T3, human Neuropilin-1 (hNP-1) (human, UniProt O14786 22-923).
T3 construct: whole, on cells; also called hNeuropilin-1
Briefly: 125I-VEGF165 competition, whole COS-1 cells. The method, then:
(§3) Cells are plated the day before experimentation at 200,000 cells per well in twelve well tissue culture plates (VWR) in 1 ml of growth medium specific for each cell type. On the day of experimentation, the cells were pre-equilibrated at 4° C. for 30 to 60 minutes in binding buffer (0.2% BSA, Sigma; 25 mM Hepes, Gibco; MEM, Gibco). […] The binding reaction is allowed to reach equilibrium for four hours at 4° C. with gentle agitation.
(§4) Unbound ligand is then removed by quickly washing three times with 5 ml ice cold BSA-free binding buffer (MEM, Gibco, 25 mM Hepes, Gibco). Cells are lysed by the addition of 250 μl of RIPS Buffer (previously described), and the lysed cells are transferred to 12×75 mm test tubes and counted using a gamma counter. Generation of competition curves and IC₅₀ values are performed using the Prism software package (Graphpad Software Inc., San Diego, Calif.).

Experiment [4] concerns the target T2, human vascular endothelial growth …. Briefly: cell-based or functional assay.
For experiment [5] the target is unchanged. Briefly: cell-based or functional assay. This is another data set of the same source.
Experiment [6] shares this target. Briefly: 125I-VEGF165 competition, whole COS-1 cells. The method, then: as §3, §4
The target in experiment [7] is T1, VEGFR-2/NP-1 co-receptor complex (cells …). Put plainly: 125I-VEGF165 competition on COS-1 cells and affinity labeling of HUVEC.
The target is the same in experiment [8]. Put plainly: 125I-VEGF165 affinity labeling of HUVEC, VEGFR-2 immunoprecipitation, 100 µM peptide (FIG. 10B). The method, then:
as §1, §2

The target in experiment [9] is T3, human Neuropilin-1 (hNP-1). Briefly: 125I-VEGF165 competition, stable Balb/C 3T3 A31 cells.
The target of experiment [10] is T1, VEGFR-2/NP-1 co-receptor complex (cells …). Described as above.

T1 sequence (P35968 20-1356, chain 1 of 2): as the sequence (P35968 20-1356) above
T1 sequence (O14786 22-923, chain 2 of 2): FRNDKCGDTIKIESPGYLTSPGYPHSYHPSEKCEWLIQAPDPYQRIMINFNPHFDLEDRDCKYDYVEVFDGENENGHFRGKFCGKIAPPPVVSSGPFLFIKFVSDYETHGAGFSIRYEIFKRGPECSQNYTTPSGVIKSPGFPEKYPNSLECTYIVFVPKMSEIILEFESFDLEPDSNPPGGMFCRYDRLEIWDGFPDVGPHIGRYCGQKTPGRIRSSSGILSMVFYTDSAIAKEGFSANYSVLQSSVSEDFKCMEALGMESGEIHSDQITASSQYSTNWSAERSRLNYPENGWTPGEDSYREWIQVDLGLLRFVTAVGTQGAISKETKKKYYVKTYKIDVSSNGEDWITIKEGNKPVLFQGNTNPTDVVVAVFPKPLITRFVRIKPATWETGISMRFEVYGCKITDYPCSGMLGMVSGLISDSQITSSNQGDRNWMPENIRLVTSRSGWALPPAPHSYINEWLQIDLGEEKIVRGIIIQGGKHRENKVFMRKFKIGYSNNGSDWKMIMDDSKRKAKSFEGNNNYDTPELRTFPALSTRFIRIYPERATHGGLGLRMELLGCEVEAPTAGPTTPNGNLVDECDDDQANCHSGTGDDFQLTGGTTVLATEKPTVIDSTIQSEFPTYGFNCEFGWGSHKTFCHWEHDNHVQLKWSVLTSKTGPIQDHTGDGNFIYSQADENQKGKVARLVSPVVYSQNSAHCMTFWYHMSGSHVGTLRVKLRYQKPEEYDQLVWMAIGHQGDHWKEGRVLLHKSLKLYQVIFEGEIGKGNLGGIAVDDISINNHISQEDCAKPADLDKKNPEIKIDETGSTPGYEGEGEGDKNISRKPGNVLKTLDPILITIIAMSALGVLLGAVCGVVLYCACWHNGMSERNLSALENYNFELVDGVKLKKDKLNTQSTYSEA
T3 sequence (O14786 22-923): as the sequence (O14786 22-923, chain 2 of 2) above

B1: P6V8-8N (peptide)
peptide: RRREKQRPCDKPRR
notes: also called PGV8-8N
Turning to B1, the binding result in experiment [1] was “binds”.

B2: VEGF121 (ligand, UniProt P15692-9 27-147, looked up)
chain: APMAEGGGQNHHEVVKFMDVYQRSYCHPIETLVDIFQEYPDEIEYIFKPSCVPLMRCGGCCNDEGLECVPTEESNITMQIMRIKPHQGQHIGEMSFLQHNKCECRPKKDRARQEKCDKPRR
With B2, the 50% inhibitory concentration (IC50) – broadly, the concentration needed to halve the response being measured – in [2] was determined as 0.312 nM. The binding result in experiment [3] is “no binding”. Also, in experiment [4], the “EC50 of VEGF121, VEGFR-2 anti-phosphotyrosine assay in HUVEC, no peptide added” value worked out at 2.45 nM; the “EC50 of VEGF121, VEGFR-2 anti-phosphotyrosine assay in HUVEC, with 100 µM P6” value came to 2.4 nM; the “EC50 of VEGF121, VEGFR-2 anti-phosphotyrosine assay in HUVEC, with 100 µM P6V8” value is 4.07 nM; the “EC50 of VEGF121, VEGFR-2 anti-phosphotyrosine assay in HUVEC, with 100 µM P6V8-3N” value amounted to 1.17 nM. Moreover, in experiment [4], the “EC50 of VEGF121, VEGFR-2 anti-phosphotyrosine assay in HUVEC, with 100 µM P6V8-3N (second row with this label)” value amounted to 1.62 nM; the “EC50 of VEGF121, VEGFR-2 anti-phosphotyrosine assay in HUVEC, with 100 µM P6V8-3NCS” value is 4.57 nM; the “EC50 of VEGF121, VEGFR-2 anti-phosphotyrosine assay in HUVEC, with 100 µM P6V8-3NCS1-7CC” value is 3.31 nM; the “EC50 of VEGF121, VEGFR-2 anti-phosphotyrosine assay in HUVEC, with 100 µM P6V8-3NCSA7, 8, 10, 12” value worked out at 17.8 nM. Further, in experiment [4], the “EC50 of VEGF121, VEGFR-2 anti-phosphotyrosine assay in HUVEC, with 100 µM P6V8-3NCSC13C18” value stood at 2.09 nM; the “Log EC50 of VEGF121, VEGFR-2 anti-phosphotyrosine assay in HUVEC, no peptide added” value is -8.61; the “Log EC50 of VEGF121, VEGFR-2 anti-phosphotyrosine assay in HUVEC, with 100 µM P6” value was -8.62; the “Log EC50 of VEGF121, VEGFR-2 anti-phosphotyrosine assay in HUVEC, with 100 µM P6V8” value is -8.39. In [4], the “Log EC50 of VEGF121, VEGFR-2 anti-phosphotyrosine assay in HUVEC, with 100 µM P6V8-3N” value is -8.93; the “Log EC50 of VEGF121, VEGFR-2 anti-phosphotyrosine assay in HUVEC, with 100 µM P6V8-3N (second row with this label)” value is -8.79; the “Log EC50 of VEGF121, VEGFR-2 anti-phosphotyrosine assay in HUVEC, with 100 µM P6V8-3NCS” value was -8.34; the “Log EC50 of VEGF121, VEGFR-2 anti-phosphotyrosine assay in HUVEC, with 100 µM P6V8-3NCS1-7CC” value is -8.48. Besides, in experiment [4], the “Log EC50 of VEGF121, VEGFR-2 anti-phosphotyrosine assay in HUVEC, with 100 µM P6V8-3NCSA7, 8, 10, 12” value was -7.75 and the “Log EC50 of VEGF121, VEGFR-2 anti-phosphotyrosine assay in HUVEC, with 100 µM P6V8-3NCSC13C18” value was -8.68. Also, in experiment [5], the “EC50 of VEGF121 for VEGFR-2 phosphorylation in HUVEC in the presence of 100 µM P6 (FIG. 8)” value is 2.38 nM; the “EC50 of VEGF121 for VEGFR-2 phosphorylation in HUVEC in the presence of 100 µM P6V8 (FIG. 8)” value is 4.04 nM; the “EC50 of VEGF121 for VEGFR-2 phosphorylation in HUVEC with antagonist P6V8-3NCSC13C18 (FIG. 12)” value worked out at 2.08 nM; the “EC50 of VEGF121 for VEGFR-2 phosphorylation in HUVEC, no peptide (FIG. 8)” value stood at 1.84 nM. For the same molecule, in experiment [5], the “EC50 of VEGF121 for VEGFR-2 phosphorylation in HUVEC, no peptide (FIG. 12)” value amounted to 2.75 nM and the “EC50 of VEGF121 for VEGFR-2 phosphorylation in HUVEC, no peptide (FIG. 13)” value was 3.38 nM.

B3: P6V8-9N (peptide)
peptide: RREKQRPCDKPRR
As for B3, the binding result was “no binding” in experiment [6] and “binds” in experiment [7].

B4: P6V8-3NCS-1C (peptide)
peptide: KGRGKRRREKQRPSDKPR
For the molecule B4, the binding result in experiment [8] is “binds”.

B5: AS-4 (peptide)
peptide: RRPKGRGKRRREAAAPSDKPRR
notes: also called NP-1 selective peptide
Regarding B5, the IC50 in experiment [9] was determined as 17.8 nM; in experiment [10], 300 nM. For the same molecule, the binding result in experiment [6] is on record as “no binding”.
